In the Human Domainome abundance scans (Beltran et al. 2025):
± gives the uncertainty stated by the source.

B1: Pituitary-specific positive transcription factor 1, residues 130 to 198; numbered along this chain, P28069 (parent)
chain: RELEKFANEFKVRRIKLGYTQTNVGEALAAVHGSEFSQTTICRFENLQLSFKNACKLKAILSKWLEEAE

Variants of: B1
Assay: abundance fitness (aPCA) (normalised: wild type 0, dead -1); higher = more abundant; growth selection in yeast, the domain comes from the species named
Conditions: Homo sapiens

| Variant | abundance fitness |
| --- | --- |
| RELEKFASEFKVRRIKLGYTQTNVGEALAAVHGSEFSQTTICRFENLQLSFKNACKLKAILSKWLEEAE [N8S] | 0.034 ± 0.059 |
| RELEKFANDFKVRRIKLGYTQTNVGEALAAVHGSEFSQTTICRFENLQLSFKNACKLKAILSKWLEEAE [E9D] | 0.031 ± 0.074 |
| RELEKFANAFKVRRIKLGYTQTNVGEALAAVHGSEFSQTTICRFENLQLSFKNACKLKAILSKWLEEAE [E9A] | -0.156 ± 0.076 |
| RELEKFANCFKVRRIKLGYTQTNVGEALAAVHGSEFSQTTICRFENLQLSFKNACKLKAILSKWLEEAE [E9C] | -0.714 ± 0.26 |
| RELEKSANEFKVRRIKLGYTQTNVGEALAAVHGSEFSQTTICRFENLQLSFKNACKLKAILSKWLEEAE [F6S] | -0.997 ± 0.13 |
| RELEKYANEFKVRRIKLGYTQTNVGEALAAVHGSEFSQTTICRFENLQLSFKNACKLKAILSKWLEEAE [F6Y] | -0.837 ± 0.1 |
| RELEKMANEFKVRRIKLGYTQTNVGEALAAVHGSEFSQTTICRFENLQLSFKNACKLKAILSKWLEEAE [F6M] | -0.753 ± 0.095 |
| RELEKVANEFKVRRIKLGYTQTNVGEALAAVHGSEFSQTTICRFENLQLSFKNACKLKAILSKWLEEAE [F6V] | -0.941 ± 0.11 |
| RELEKNANEFKVRRIKLGYTQTNVGEALAAVHGSEFSQTTICRFENLQLSFKNACKLKAILSKWLEEAE [F6N] | -0.88 ± 0.21 |
| RELEKTANEFKVRRIKLGYTQTNVGEALAAVHGSEFSQTTICRFENLQLSFKNACKLKAILSKWLEEAE [F6T] | -0.992 ± 0.17 |
| RELEKGANEFKVRRIKLGYTQTNVGEALAAVHGSEFSQTTICRFENLQLSFKNACKLKAILSKWLEEAE [F6G] | -0.688 ± 0.053 |
| RELEKQANEFKVRRIKLGYTQTNVGEALAAVHGSEFSQTTICRFENLQLSFKNACKLKAILSKWLEEAE [F6Q] | -0.916 ± 0.13 |
| RELEKRANEFKVRRIKLGYTQTNVGEALAAVHGSEFSQTTICRFENLQLSFKNACKLKAILSKWLEEAE [F6R] | -0.844 ± 0.086 |
| RELEKPANEFKVRRIKLGYTQTNVGEALAAVHGSEFSQTTICRFENLQLSFKNACKLKAILSKWLEEAE [F6P] | -0.835 ± 0.19 |
| RELEKWANEFKVRRIKLGYTQTNVGEALAAVHGSEFSQTTICRFENLQLSFKNACKLKAILSKWLEEAE [F6W] | -0.333 ± 0.052 |
| RELEKKANEFKVRRIKLGYTQTNVGEALAAVHGSEFSQTTICRFENLQLSFKNACKLKAILSKWLEEAE [F6K] | -0.756 ± 0.18 |
| RELEKEANEFKVRRIKLGYTQTNVGEALAAVHGSEFSQTTICRFENLQLSFKNACKLKAILSKWLEEAE [F6E] | -0.791 ± 0.14 |
| RELEKHANEFKVRRIKLGYTQTNVGEALAAVHGSEFSQTTICRFENLQLSFKNACKLKAILSKWLEEAE [F6H] | -0.726 ± 0.12 |
| RELEKCANEFKVRRIKLGYTQTNVGEALAAVHGSEFSQTTICRFENLQLSFKNACKLKAILSKWLEEAE [F6C] | -0.992 ± 0.17 |
| RELEKDANEFKVRRIKLGYTQTNVGEALAAVHGSEFSQTTICRFENLQLSFKNACKLKAILSKWLEEAE [F6D] | -1.06 ± 0.22 |

| Variant | abundance fitness |
| --- | --- |
| RELEKAANEFKVRRIKLGYTQTNVGEALAAVHGSEFSQTTICRFENLQLSFKNACKLKAILSKWLEEAE [F6A] | -0.666 ± 0.11 |
| RELERFANEFKVRRIKLGYTQTNVGEALAAVHGSEFSQTTICRFENLQLSFKNACKLKAILSKWLEEAE [K5R] | -0.117 ± 0.043 |
| RELELFANEFKVRRIKLGYTQTNVGEALAAVHGSEFSQTTICRFENLQLSFKNACKLKAILSKWLEEAE [K5L] | -0.227 ± 0.039 |
| RELEEFANEFKVRRIKLGYTQTNVGEALAAVHGSEFSQTTICRFENLQLSFKNACKLKAILSKWLEEAE [K5E] | -0.062 ± 0.049 |
| RELEIFANEFKVRRIKLGYTQTNVGEALAAVHGSEFSQTTICRFENLQLSFKNACKLKAILSKWLEEAE [K5I] | -0.079 ± 0.054 |
| RELEVFANEFKVRRIKLGYTQTNVGEALAAVHGSEFSQTTICRFENLQLSFKNACKLKAILSKWLEEAE [K5V] | -0.278 ± 0.041 |
| RELEPFANEFKVRRIKLGYTQTNVGEALAAVHGSEFSQTTICRFENLQLSFKNACKLKAILSKWLEEAE [K5P] | -1.07 ± 0.16 |
| RELEWFANEFKVRRIKLGYTQTNVGEALAAVHGSEFSQTTICRFENLQLSFKNACKLKAILSKWLEEAE [K5W] | -0.596 ± 0.063 |
| RELEQFANEFKVRRIKLGYTQTNVGEALAAVHGSEFSQTTICRFENLQLSFKNACKLKAILSKWLEEAE [K5Q] | -0.172 ± 0.064 |
| RELETFANEFKVRRIKLGYTQTNVGEALAAVHGSEFSQTTICRFENLQLSFKNACKLKAILSKWLEEAE [K5T] | -0.21 ± 0.066 |
| RELEYFANEFKVRRIKLGYTQTNVGEALAAVHGSEFSQTTICRFENLQLSFKNACKLKAILSKWLEEAE [K5Y] | -0.236 ± 0.096 |
| RELEAFANEFKVRRIKLGYTQTNVGEALAAVHGSEFSQTTICRFENLQLSFKNACKLKAILSKWLEEAE [K5A] | -0.015 ± 0.045 |
| RELEFFANEFKVRRIKLGYTQTNVGEALAAVHGSEFSQTTICRFENLQLSFKNACKLKAILSKWLEEAE [K5F] | -0.46 ± 0.14 |
| RELEGFANEFKVRRIKLGYTQTNVGEALAAVHGSEFSQTTICRFENLQLSFKNACKLKAILSKWLEEAE [K5G] | -0.478 ± 0.071 |
| RELEHFANEFKVRRIKLGYTQTNVGEALAAVHGSEFSQTTICRFENLQLSFKNACKLKAILSKWLEEAE [K5H] | -0.135 ± 0.065 |
| RELECFANEFKVRRIKLGYTQTNVGEALAAVHGSEFSQTTICRFENLQLSFKNACKLKAILSKWLEEAE [K5C] | -0.647 ± 0.089 |
| RELESFANEFKVRRIKLGYTQTNVGEALAAVHGSEFSQTTICRFENLQLSFKNACKLKAILSKWLEEAE [K5S] | -0.278 ± 0.044 |
| RELENFANEFKVRRIKLGYTQTNVGEALAAVHGSEFSQTTICRFENLQLSFKNACKLKAILSKWLEEAE [K5N] | -0.079 ± 0.056 |
| RELEDFANEFKVRRIKLGYTQTNVGEALAAVHGSEFSQTTICRFENLQLSFKNACKLKAILSKWLEEAE [K5D] | 0.048 ± 0.074 |
